Measured values as given in patent US6428997.

Tests used:
[1] = target: methionyl human growth hormone (UniProt P01241)
[2] = test system: T1, leucyl oligopeptide of SEQ ID NO: 2
T1 sequence: LFPTEPS

[3] = test system: T2, methionyl oligopeptide of SEQ ID NO: 1 (Met-Phe-Pro-Thr-Glu-Pro-Ser)
T2 sequence: MFPTEPS

Sequence of methionyl human growth hormone (P01241 other isoform, or with tags, fused parts or gaps): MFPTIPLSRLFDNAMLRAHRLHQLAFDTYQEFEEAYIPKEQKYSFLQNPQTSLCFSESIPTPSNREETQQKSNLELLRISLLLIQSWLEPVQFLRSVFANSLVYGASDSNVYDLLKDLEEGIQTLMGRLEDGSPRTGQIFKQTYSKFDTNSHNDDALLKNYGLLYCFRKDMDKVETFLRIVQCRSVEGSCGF

Substance: aminopeptidase from Bacillus licheniformis (purified from Bacillus licheniformis ATCC 12759)
- removal of N-terminal methionine (N-terminal sequencing of the recovered HGH) [1]: remove N-terminal methionine of methionyl HGH completely
- removal of N-terminal methionine, large scale (N-terminal sequencing of the recovered HGH) [1]: HGH produced by the above process had phenylalanine at the N-terminus due to methionine removal
- Kcat/Km [2]: 1.63e+06 M⁻¹ s⁻¹
- Km [2]: 172 µM
- kcat [2]: 276 s⁻¹
- Kcat/Km [3]: 56100 M⁻¹ s⁻¹
- Km [3]: 387 µM
- kcat [3]: 21.1 s⁻¹
